Measurements: the supplement of paper PMC7877785
± gives the uncertainty stated by the source.

Test: self-splicing fitness, log relative to wild type (ln ratio); higher = more splicing; Tetrahymena group I intron in knt gene, E. coli kanamycin selection, DiMSum; sequences stand for … in CUCUCU…GGAGGGAAAAGUUAUCAGGCAUGCACCUGGUAGCUAGUCUUUAAACCAAUAGAUUGCAUCGGUUUAAAAGGCAAGACCGUCAAAUUGCGGGAAAGGGGUCAACAGCCGUUCAGUACCAAGUCUCAGGGGAAACUUUGAGAUGGCCUUGCAAAGGGUAUGGUAAUAAGCUGACGGACAUGGUCCUAACCACGCAGCCAAGUCCUAAGUCAACAGAUCUUCUGUUGAUAUGGAUGCAGUUCACAGACUAAAUGUCGGUCGGGGAAGAUGUAUUCUUCUCAUAAGAUAUAGUCGGACCUCUCCUUAAUGGGAGCUAGCGGAUGAAGUGAUGCAACACUGGAGCCGCUGGGAACUAAUUUGUAUGCGAAAGUAUAUUGAUUAGUUUUGGAGUACUCGUGGUCG
How it was run: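 A randomised library covering all eight P1ex-region intron nucleotides was built with the intron in the knt kanamycin-resistance gene on pET-22b(+) and held in E. coli BL21(DE3). Cells were grown overnight at 37°C or 30°C on LB agar, with or without 25 μg/mL kanamycin, plus 100 μg/mL carbenicillin, 50 μM IPTG and 0.2% rhamnose, and pooled colonies were amplicon-sequenced on an Illumina HiSeq 2500. DiMSum fitness is the error-weighted combination of wild-type-normalised replicate fold changes, kanamycin versus none.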

Sequence | self-splicing fitness (ln) (30 °C) | self-splicing fitness (ln) (37 °C)
CUCAAGCAAUAUUACGUAGC | -4.09 ± 0.25 | -2.59 ± 0.22
CUCAAGCAAUAUUACGUAUA | -3.98 ± 0.19 | -2.59 ± 0.16
CUCAAGCAAUAUUACGUGAC | -2.46 ± 0.15 | -0.92 ± 0.12
CUCAAGCAAUAUUACGUGAG | -3.05 ± 0.11 | -3.3 ± 0.16
CUCAAGCAAUAUUACGUUUG | -2.21 ± 0.12 | -2.8 ± 0.15
CUCAAGCAAUAUUACGUUUU | -3.35 ± 0.14 | -2.34 ± 0.18
CUCCAGCAAUAUUACGAAAC | -3.94 ± 0.32 | -2.44 ± 0.26
CUCCAGCAAUAUUACGAACA | -3.95 ± 0.43 | -2.23 ± 0.21
CUCCAGCAAUAUUACGAACG | -1.6 ± 0.15 | -0.22 ± 0.15
CUCCAGCAAUAUUACGACCA | – | -1.37 ± 0.41
CUCCAGCAAUAUUACGACUA | -2.47 ± 0.21 | -2.53 ± 0.29
CUCCAGCAAUAUUACGAGCC | -2.73 ± 0.22 | -2.15 ± 0.28
CUCCAGCAAUAUUACGAGUU | -2.87 ± 0.17 | -2.66 ± 0.29
CUCCAGCAAUAUUACGAUGC | -2.81 ± 0.25 | -2.95 ± 0.32
CUCCAGCAAUAUUACGCAAU | -4.47 ± 0.41 | -2.43 ± 0.2
CUCCAGCAAUAUUACGCCUG | -3.25 ± 0.21 | -2.71 ± 0.27
CUCCAGCAAUAUUACGCGUU | -3.65 ± 0.17 | -2.01 ± 0.14
CUCCAGCAAUAUUACGCUCC | -2.73 ± 0.3 | –
CUCCAGCAAUAUUACGCUUC | -3.31 ± 0.24 | -2.27 ± 0.23
CUCCAGCAAUAUUACGUAUU | -4.45 ± 0.15 | -3.21 ± 0.18

Sequence | self-splicing fitness (ln) (30 °C) | self-splicing fitness (ln) (37 °C)
CUCCAGCAAUAUUACGUGCU | -3.06 ± 0.11 | -2.58 ± 0.14
CUCCAGCAAUAUUACGUGGC | -3.82 ± 0.15 | -3.4 ± 0.24
CUCCAGCAAUAUUACGUUAU | -3.58 ± 0.22 | -3.38 ± 0.28
CUCGAGCAAUAUUACGCAGG | -3.62 ± 0.3 | -2.36 ± 0.25
CUCGAGCAAUAUUACGCCAA | -3.29 ± 0.41 | -2.04 ± 0.46
CUCGAGCAAUAUUACGCGCA | -2.79 ± 0.48 | –
CUCGAGCAAUAUUACGCUCA | -1.96 ± 0.27 | -2.15 ± 0.45
CUCGAGCAAUAUUACGCUGA | -2.4 ± 0.43 | -0.491 ± 0.3
CUCGAGCAAUAUUACGCUUU | -4.13 ± 0.46 | -2.31 ± 0.31
CUCGAGCAAUAUUACGGAAA | -2.9 ± 0.28 | -1.37 ± 0.16
CUCGAGCAAUAUUACGGAAC | -3.24 ± 0.24 | -1.98 ± 0.25
CUCGAGCAAUAUUACGGAGC | -3.66 ± 0.26 | -3.22 ± 0.3
CUCGAGCAAUAUUACGGGAU | -3.84 ± 0.36 | -1.93 ± 0.3
CUCGAGCAAUAUUACGGGCA | -2.35 ± 0.36 | 0.194 ± 0.26
CUCGAGCAAUAUUACGGUAU | -2.54 ± 0.14 | -2.62 ± 0.21
CUCGAGCAAUAUUACGGUUU | -3.87 ± 0.27 | –
CUCGAGCAAUAUUACGUACG | -3.49 ± 0.22 | -2.86 ± 0.28
CUCGAGCAAUAUUACGUCCU | -2.54 ± 0.24 | -2.55 ± 0.48
CUCGAGCAAUAUUACGUCUG | -2.84 ± 0.19 | -1.2 ± 0.18
